Measured values from patent US20110104789A1.

Experiments:
[1] = molecular target: human EF-2 mutant (G717R) (human) (UniProt P13639); experiment: cell-based or functional assay
[2] = molecular target: human elongation factor 2 (EF-2) (human) (UniProt P13639); experiment: cell-based or functional assay

**Q.** For “DT-A(176) (from UniProt P00587 26-210) (enzyme)”, which GFP-positive cells relative to control vector pNL-GFP-RRE-SA, DT-resistant EF-2 mutant cell line 5H7 [1] is on record?
**A.** Its GFP-positive cells relative to control vector pNL-GFP-RRE-SA, DT-resistant EF-2 mutant cell line 5H7 is 70 to 80%.

**Q.** For “DT-A(E148D) (from UniProt P00587 26-210) (enzyme)”, which GFP-positive cells relative to control vector pNL-GFP-RRE-SA, DT-resistant EF-2 mutant cell line 5H7 [1] is on record?
**A.** Its GFP-positive cells relative to control vector pNL-GFP-RRE-SA, DT-resistant EF-2 mutant cell line 5H7 is 70 to 80%.

**Q.** With “DT-A(E148S) (from UniProt P00587 26-210) (enzyme)” as the substance, how does the GFP-positive cells relative to control vector pNL-GFP-RRE-SA, DT-resistant EF-2 mutant cell line 5H7 [1] read?
**A.** The GFP-positive cells relative to control vector pNL-GFP-RRE-SA, DT-resistant EF-2 mutant cell line 5H7 was 70 to 80%.

**Q.** Which GFP-positive cells relative to control vector pNL-GFP-RRE-SA, DT-resistant EF-2 mutant cell line 5H7 [1] does the source give for “DT-AΔN (from UniProt P00587 39-210) (enzyme)” here?
**A.** Its GFP-positive cells relative to control vector pNL-GFP-RRE-SA, DT-resistant EF-2 mutant cell line 5H7 is 70 to 80%.

**Q.** With “wild type diphtheria toxin A chain (DT-A) (from UniProt P00587 26-210) (enzyme)” as the substance, how does the GFP-positive cells after cotransfection with pNL-DT-GFP-RRE-SA plus pCMVΔR8.2, EF-2 mutant clone 4H10 (FIG. 4A) [1] read?
**A.** The GFP-positive cells after cotransfection with pNL-DT-GFP-RRE-SA plus pCMVΔR8.2, EF-2 mutant clone 4H10 (FIG. 4A) was 14%.

**Q.** What about the GFP-positive cells after cotransfection with pNL-DT-GFP-RRE-SA plus pCMVΔR8.2, EF-2 mutant clone 5E12 (FIG. 4A) [1] of the same substance?
**A.** The GFP-positive cells after cotransfection with pNL-DT-GFP-RRE-SA plus pCMVΔR8.2, EF-2 mutant clone 5E12 (FIG. 4A) was 9%.

**Q.** And the GFP-positive cells after cotransfection with pNL-DT-GFP-RRE-SA plus pCMVΔR8.2, EF-2 mutant clone 5H7 (FIG. 4A) [1]?
**A.** Its GFP-positive cells after cotransfection with pNL-DT-GFP-RRE-SA plus pCMVΔR8.2, EF-2 mutant clone 5H7 (FIG. 4A) is 46%.

**Q.** What about the GFP-positive cells after cotransfection with pNL-DT-GFP-RRE-SA plus pCMVΔR8.2, EF-2 mutant clone AB1 (FIG. 4A) [1] of the same substance?
**A.** Its GFP-positive cells after cotransfection with pNL-DT-GFP-RRE-SA plus pCMVΔR8.2, EF-2 mutant clone AB1 (FIG. 4A) is 24%.

**Q.** What about the GFP-positive cells after cotransfection with pNL-DT-GFP-RRE-SA plus pCMVΔR8.2, EF-2 mutant clone CB2 (FIG. 4A) [1] of the same substance?
**A.** The GFP-positive cells after cotransfection with pNL-DT-GFP-RRE-SA plus pCMVΔR8.2, EF-2 mutant clone CB2 (FIG. 4A) was 28%.

**Q.** And the GFP-positive cells, 5H7 cells (FIG. 4B; control pNL-DT(R)-GFP-RRE-SA gave 64%) [1]?
**A.** Its GFP-positive cells, 5H7 cells (FIG. 4B; control pNL-DT(R)-GFP-RRE-SA gave 64%) is 54%.

**Q.** And the share of 5H7 cells surviving the toxin [1]?
**A.** The share of 5H7 cells surviving the toxin was > 80%.

**Q.** What about the GFP-positive cells after cotransfection with pNL-DT-GFP-RRE-SA plus pCMVΔR8.2, parental HEK293T cells (FIG. 4A) [2] of the same substance?
**A.** The GFP-positive cells after cotransfection with pNL-DT-GFP-RRE-SA plus pCMVΔR8.2, parental HEK293T cells (FIG. 4A) was 0%.

**Q.** And the GFP-positive cells, HEK293T cells (FIG. 4B; control pNL-DT(R)-GFP-RRE-SA gave 43%) [2]?
**A.** Its GFP-positive cells, HEK293T cells (FIG. 4B; control pNL-DT(R)-GFP-RRE-SA gave 43%) is 0%.
